Reference: publication PMC8567202, “Phosphoinositide-binding activity of Smad2 is essential for its function in TGF-β signaling” (The Journal of Biological Chemistry, 2021)

How the values were obtained:
[1] = system: Smad2 transcriptional activity; assay: Dual luciferase reporter assay for Smad2 transcriptional activity; format: cell-based; details: for Smad2 transcriptional activity after TGF-β stimulation: Smad2-suppressed HeLa cells, luciferase, 10 ng/ml TGF-β for 48 h
Experimental: Two separate gels were used to accommodate all mutants. An empty vector transfection (vehicle) was used for a negative control for each gel. Glyceraldehyde 3-phosphate dehydrogenase (GAPDH) was used as a gel loading control. Data in A and B are quantified in Fig. S3A. C, TGF-β stimulated (10 ng/ml for 1 h) nuclear translocation of mouse EGFP-WT, -K420A, -W422A, -E425K, -Y426A, and -R427A/R428A transfected into HeLa cells whose endogenous Smad2 was suppressed by siRNA. For Smad2-WT, the effect of PI(4,5)P2 depletion was measured. Arrows indicate nuclear accumulation of EGFP-WT and EGFP-E425K. Scale bars indicate 10 μm. D, quantification of (C). (Inuc/Icyto) was calculated from total nuclear and cytosolic fluorescence intensity values. Blank and black bars indicate values before and after TGF-β stimulation. Error bars indicate S.D. values from >3 measurements (n = 10). E, Smad2 transcriptional activity measured by the luciferase assay. Blank and black bars indicate values before and after TGF-β stimulation. Error bars indicate S.D. values from >3 measurements (n = 10).
HeLa cells were plated on 6-well plates at the density of ∼1.5 × 10^5 and treated with siRNA as described above. The reporter gene containing three TGF-β/activin response element (ARE) coupled with the luciferase gene (pGL2 3ARE-Lux: Addgene) was used for enhanced activity ([55]). On translocation into the nucleus, receptor-activated Smad2 associates with the DNA-binding protein FAST1 to form a transcriptional complex on the ARE of the Mix.2 promoter. After 24 h, the cell media were replaced with fresh media and cells were cotransfected with 375 ng pGL2 3ARE-Lux experimental vector, 37.5 ng pGL4.73[hRluc/SV40] internal control vector (Promega), 337.5 ng FAST1, and 750 ng of pcDNA 3.1 plasmid harboring Smad2 WT or mutant using the jetPRIME transfection system (Polyplus transfection) according to the manufacturer's protocols. After 24 h of transfection, cells were placed in fresh media and stimulated with 10 ng/ml TGF-β for 48 h. Then the cells were washed with phosphate buffer saline, and the dual luciferase reporter assay was performed according to the manufacturer's protocols (Promega). All 3ARE-Luc activity values were normalized using the pGL4.73[hRluc/SV40] values as a reference.

[2] = SPR membrane binding to POPC/POPS/PI(4,5)P2 vesicles; details: for Kd: L1 chip, 23 °C, 20 mM Tris, pH 7.4, 0.16 M NaCl, average ±S.D., n = 3, read-out: Kd for lipid binding, PC/PS/PI(4,5)P2
Source text: It has been generally thought that Smad2 and Smad3 are targeted to the activated TGF-β signaling complex by direct interaction with TβRI ([1], [2]) or via SARA ([7]). However, it has been shown that many cytosolic proteins that are targeted to membrane proteins or membrane-anchored signaling complexes have affinity for membrane lipids ([14]), phosphoinositides (PtdInsPs) in particular, and that their membrane recruitment is mediated by coincident lipid–protein and protein–protein interactions ([15], [16]). For most of these proteins, their PtdInsP specificity directs their membrane targeting behaviors: e.g., PI(4,5)P2-specific proteins are recruited to PM where the highest concentration of PI(4,5)P2 is found, whereas PI(3)P-specific proteins are targeted to PI(3)P-rich EEs ([17], [18]). To resolve uncertainty about the functional location of the activated TGF-β signaling complex, we thus explored the possibility that lipid-binding activity of Smad2 may play a role in specific targeting of Smad2 to the active TGF-β receptor complex either at the PM or at EEs. Lipid-binding activity of Smad proteins has not been reported to date. We thus measured the binding of bacterially expressed Smad2 to large unilamellar vesicles (LUVs) containing various lipids by surface plasmon resonance (SPR) analysis ([19], [20]). Lipid selectivity determined by SPR analysis is typically reported as the relative resonance unit (RU) values for different lipids at a given protein concentration ([21], [22]). Although simple and intuitive, this type of analysis can sometimes yield misleading and erroneous results because some proteins show widely different RU values when bound to different lipid surfaces. Thus, a more reliable parameter that represents the fraction of the membrane bound protein molecules at a given protein concentration would be a normalized value of RU/RUmax where RUmax indicates the maximal RU value when a given lipid surface is saturated with the protein molecules. We thus estimated RUmax for different lipid species by employing the highest protein concentration experimentally feasible (e.g., 1 μM) and determined RU/RUmax for different lipids at the protein concentration that allows robust comparison (e.g., 100 nM). Once the lipid selectivity has been determined by this semiquantitative approach, we then rigorously determined and compared Kd values for selected lipids for more accurate quantitative determination of lipid selectivity.
Figure 1 Membrane-binding properties of Smad2 FL protein and MH2 domain determined by SPR analysis.A, PtdInsP selectivity of Smad2-FL determined using POPC/POPS/PtdInsP (77:20:3 in mole ratio) LUVs coated on the L1 sensor chip. The protein concentration was 100 nM. PIP3 indicates PI(3,4,5)P3. B, determination of Kd for binding of Smad2 FL to different LUVs. The protein concentration was varied from 0 to 500 nM. C, PI(4,5)P2 concentration dependence of membrane binding of Smad2-FL determined using POPC/POPS/PI(4,5)P2 (77-x:20:x, x = 0–5 mol%) LUVs. The protein concentration was 100 nM. D, PtdInsP selectivity of the Smad2 MH2 domain determined using POPC/POPS/PtdInsP (77:20:3 in mole ratio) LUVs. The protein concentration was 100 nM. Normalized RU values (RU/RUmax) were used for all figures but (C) for more accurate determination of PtdInsP selectivity. RUmax values determined for different vesicles at 1 μM Smad2 were: 280 ± 20 for POPC/POPS/PI(4,5)P2 (77:20:3), 370 ± 10 for POPC/POPS/PI(3,4)P2 (77:20:3), 400 ± 15 for POPC/POPS/PI(3,4,5)P3 (or PIP3) (77:20:3), 400 ± 20 for POPC/POPS/PI(3)P (77:20:3), and 380 ± 20 for POPC/POPS (80:20). Only the association phases of the sensorgrams are shown and used for further analysis. Each set of sensorgrams shown in A and D are representatives of >5 independent measurements. Data points shown in B and C are the average ±S.D. values from triplicate measurements. […]

[3] = SPR, POPC/POPS/PI(4,5)P2 (77:20:3)

Row | Molecule | Smad2 transcriptional activity after TGF-β stimulation [1] | Kd [2, 3] | PI(4,5)P2 selectivity over POPC/POPS (80:20) ([2]; SPR, RU/RUmax, 100 nM protein) | binding to POPC/POPS/PI(4,5)P2 (77:20:3) ([2]; SPR, RU/RUmax, 100 nM protein) | higher affinity for POPC/POPS/PI(4,5)P2 (77:20:3) than WT ([2]; SPR, increase in affinity vs WT) | TGF-β-induced Smad2 transcriptional activity after PI(4,5)P2 depletion ([1]; HeLa cells, PI(4,5)P2 depletion) | RUmax ([2]; POPC/POPS/PI(4,5)P2 (77:20:3), 1 μM Smad2) | affinity for PI(4,5)P2-containing vesicles relative to PI(3)P-containing ones ([2]; SPR, Kd comparison) | increase in membrane affinity by 3 mol% PI(4,5)P2 over POPC/POPS (80:20) vesicles ([2]; SPR, Kd comparison) | PI(4,5)P2 concentration dependence of membrane binding ([2]; SPR, POPC/POPS/PI(4,5)P2 (77-x:20:x, x = 0–5 mol%), 100 nM protein)
1 | Smad2-E425K: charge-reversal mutant of full-length Smad2; PI(4,5)P2 and TβRI binding-enhanced (protein, left off: His6, N-terminal, state not stated) MSSILPFTPPVVKRLLGWKKSAGGSGGAGGGEQNGQEEKWCEKAVKSLVKKLKKTGRLDELEKAITTQNCNTKCVTIPSTCSEIWGLSTANTVDQWDTTGLYSFSEQTRSLDGRLQVSHRKGLPHVIYCRLWRWPDLHSHHELKAIENCEYAFNLKKDEVCVNPYHYQRVETPVLPPVLVPRHTEILTELPPLDDYTHSIPENTNFPAGIEPQSNYIPETPPPGYISEDGETSDQQLNQSMDTGSPAELSPTTLSPVNHSLDLQPVTYSEPAFWCSIAYYELNQRVGETFHASQPSLTVDGFTDPSNSERFCLGLLSNVNRNATVEMTRRHIGRGVRLYYIGGEVFAECLSDSAIFVQSPNCNQRYGWHPATVCKIPPGCNLKIFNNQEFAALLAQSVNQGFEAVYQLTRMCTIRMSFVKGWGAKYRRQTVTSTPCWIELHLNGPLQWLDKVLTQMGSPSVRCSSMS | higher transcriptional activity than exogeneous Smad2 WT | 70 ± 7 nM | retaining the PI(4,5)P2 selectivity of WT | modestly higher membrane binding than WT | ~40% |  |  |  |  | 
2 | Smad2 WT: bacterially expressed full-length Smad2 wild-type (protein, left off: His6, N-terminal, state not stated, bacterially expressed full-length Smad2 wild-type) MSSILPFTPPVVKRLLGWKKSAGGSGGAGGGEQNGQEEKWCEKAVKSLVKKLKKTGRLDELEKAITTQNCNTKCVTIPSTCSEIWGLSTANTVDQWDTTGLYSFSEQTRSLDGRLQVSHRKGLPHVIYCRLWRWPDLHSHHELKAIENCEYAFNLKKDEVCVNPYHYQRVETPVLPPVLVPRHTEILTELPPLDDYTHSIPENTNFPAGIEPQSNYIPETPPPGYISEDGETSDQQLNQSMDTGSPAELSPTTLSPVNHSLDLQPVTYSEPAFWCSIAYYELNQRVGETFHASQPSLTVDGFTDPSNSERFCLGLLSNVNRNATVEMTRRHIGRGVRLYYIGGEVFAECLSDSAIFVQSPNCNQRYGWHPATVCKIPPGCNLKIFNNQEFAALLAQSVNQGFEAVYQLTRMCTIRMSFVKGWGAEYRRQTVTSTPCWIELHLNGPLQWLDKVLTQMGSPSVRCSSMS | fully restored Smad2 transcriptional activity | 100 ± 20 nM |  |  |  | abrogated TGF-β-induced Smad2 transcriptional activity | 280 ± 20 | twofold higher affinity | 5.6 fold | dependent on the PI(4,5)P2 concentration
